Experimental findings from PMC9482650, “Quantitative fragmentomics allow affinity mapping of interactomes” (Nature Communications, 2022) are described below.

Common to all, as to assay: holdup assay
Holding throughout (parameters): key: below the threshold = too weak to quantify, mostly under pKd 3.1 to 4
What all share (details): plain residues with an end cap or a label only (N-terminal biotin on a linker: ado-ado)

In experiment [1] the target is MAGI2_6, Q86UL8.
Experiment [2] deals with T1, NHERF3_3, Q5T2W1.
T1 sequence (Q5T2W1 238-333, limits assumed, looked up): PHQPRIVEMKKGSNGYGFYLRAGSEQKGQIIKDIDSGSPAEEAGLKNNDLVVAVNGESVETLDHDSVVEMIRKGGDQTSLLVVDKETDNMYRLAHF

For experiment [3], the target named is T2, ARHGAP21, Q5T5U3.
T2 sequence (Q5T5U3 45-169, limits assumed, looked up): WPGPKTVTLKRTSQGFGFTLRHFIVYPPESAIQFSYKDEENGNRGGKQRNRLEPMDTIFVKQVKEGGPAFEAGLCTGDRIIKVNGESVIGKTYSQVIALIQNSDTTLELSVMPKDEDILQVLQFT

The target of experiment [4] is T3, APBA2_2, Q99767.
T3 sequence (Q99767 654-744, limits assumed, looked up): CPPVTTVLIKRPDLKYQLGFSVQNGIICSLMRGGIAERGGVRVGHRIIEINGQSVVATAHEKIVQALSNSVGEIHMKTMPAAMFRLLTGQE

The target of experiment [5] is T4, SNTB1, Q13884.
T4 sequence (Q13884 107-205, limits assumed, looked up): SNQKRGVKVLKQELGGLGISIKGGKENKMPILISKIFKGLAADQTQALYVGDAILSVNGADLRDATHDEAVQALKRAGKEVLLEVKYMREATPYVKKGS

In experiment [6] the target is DLG4_1, P78352.
DLG4_1, P78352, sequence (P78352 62-152): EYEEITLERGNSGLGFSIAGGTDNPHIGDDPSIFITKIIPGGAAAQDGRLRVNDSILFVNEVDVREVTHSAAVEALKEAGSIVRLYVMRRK
Experiment [7] deals with T5, LIN7B, Q9HAP6.
T5 sequence (Q9HAP6 88-185, limits assumed, looked up): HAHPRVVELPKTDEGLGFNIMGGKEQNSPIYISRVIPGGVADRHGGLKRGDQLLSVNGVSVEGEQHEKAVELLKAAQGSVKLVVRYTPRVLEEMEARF

In experiment [8] the target is CASK, O14936.
CASK, O14936, sequence (O14936 487-570): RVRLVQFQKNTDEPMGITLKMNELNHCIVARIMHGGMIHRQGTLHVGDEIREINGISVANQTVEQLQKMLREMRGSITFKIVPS
Experiment [9] addresses FRMPD2_2, Q68DX3.
Experiment [10] deals with T6, TX1BP3, O14907.
T6 sequence (O14907 10-122, limits assumed, looked up): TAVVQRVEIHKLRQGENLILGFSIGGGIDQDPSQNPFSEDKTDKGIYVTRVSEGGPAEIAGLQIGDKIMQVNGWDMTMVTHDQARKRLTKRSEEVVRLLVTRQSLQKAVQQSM

Experiment [11] deals with PDLIM1, O00151.
PDLIM1, O00151, sequence (O00151 1-87): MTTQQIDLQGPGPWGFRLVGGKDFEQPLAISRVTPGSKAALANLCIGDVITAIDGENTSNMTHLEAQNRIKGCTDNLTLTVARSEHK
In experiment [12] the target is T7, APBA1_2, Q02410.
T7 sequence (Q02410 742-832, limits assumed, looked up): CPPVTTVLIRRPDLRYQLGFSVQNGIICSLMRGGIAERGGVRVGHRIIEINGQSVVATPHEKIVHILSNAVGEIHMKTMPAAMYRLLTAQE

The target of experiment [13] is PTPN3, P26045.
PTPN3, P26045, sequence (P26045 505-587): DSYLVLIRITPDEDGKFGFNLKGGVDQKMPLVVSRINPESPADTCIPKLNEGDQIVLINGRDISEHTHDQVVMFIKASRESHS
Experiment [14] addresses T8, GRIP1_5, Q9Y3R0.
T8 sequence (Q9Y3R0 568-668, limits assumed, looked up): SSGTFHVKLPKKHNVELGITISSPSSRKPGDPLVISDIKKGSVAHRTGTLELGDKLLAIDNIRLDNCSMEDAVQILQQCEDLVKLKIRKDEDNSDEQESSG

Experiment [15] has as its target ARHGEF12, Q9NZN5-2.
For experiment [16], the target named is GRIP2_4, Q9C0E4.
GRIP2_4, Q9C0E4, sequence (Q9C0E4 446-548): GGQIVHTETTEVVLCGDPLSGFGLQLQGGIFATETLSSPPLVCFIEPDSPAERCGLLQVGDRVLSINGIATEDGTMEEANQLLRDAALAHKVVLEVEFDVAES
Experiment [17] has as its target T9, MPP2, Q14168.
T9 sequence (Q14168 180-250, limits assumed, looked up): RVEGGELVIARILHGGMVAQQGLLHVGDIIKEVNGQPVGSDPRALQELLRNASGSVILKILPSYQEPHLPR

The target in experiment [18] is T10, MPP7, Q5T2T1.
T10 sequence (Q5T2T1 134-230, limits assumed, looked up): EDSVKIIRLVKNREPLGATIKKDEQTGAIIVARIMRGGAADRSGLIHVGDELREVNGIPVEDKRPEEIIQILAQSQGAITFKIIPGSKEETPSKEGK

The target in experiment [19] is T11, MPDZ_5, O75970.
T11 sequence (O75970 695-796, limits assumed, looked up): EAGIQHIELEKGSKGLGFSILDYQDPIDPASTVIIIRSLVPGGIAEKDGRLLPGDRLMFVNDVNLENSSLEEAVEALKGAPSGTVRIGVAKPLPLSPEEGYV

The target of experiment [20] is T12, PDZD7_3, Q9H5P4.
T12 sequence (Q9H5P4 857-944, limits assumed, looked up): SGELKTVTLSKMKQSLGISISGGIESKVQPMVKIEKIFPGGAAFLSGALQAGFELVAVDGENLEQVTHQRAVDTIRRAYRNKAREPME

Experiment [21] concerns the target Inadl_4, Q8NI35.
In experiment [22] the target is T13, SIPA1L2, Q9P2F8.
T13 sequence (Q9P2F8 945-1036, limits assumed, looked up): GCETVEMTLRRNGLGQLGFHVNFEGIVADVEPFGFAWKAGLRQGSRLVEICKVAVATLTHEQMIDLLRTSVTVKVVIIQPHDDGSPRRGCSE

In experiment [23] the target is MAST2, Q6P0Q8.
MAST2, Q6P0Q8, sequence (Q6P0Q8 1099-1202): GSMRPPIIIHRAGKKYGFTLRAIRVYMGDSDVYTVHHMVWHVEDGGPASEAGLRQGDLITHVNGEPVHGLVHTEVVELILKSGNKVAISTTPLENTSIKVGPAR
Experiment [24] deals with T14, NHERF3_4, Q5T2W1.
T14 sequence (Q5T2W1 373-468, limits assumed, looked up): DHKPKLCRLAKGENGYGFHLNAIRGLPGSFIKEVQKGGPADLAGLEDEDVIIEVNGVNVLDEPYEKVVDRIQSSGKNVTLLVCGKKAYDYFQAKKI

FRMPD2_2, Q68DX3, sequence (Q68DX3 944-1038): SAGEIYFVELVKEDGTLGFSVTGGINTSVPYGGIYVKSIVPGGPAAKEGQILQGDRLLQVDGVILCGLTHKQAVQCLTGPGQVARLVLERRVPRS
MAGI2_6, Q86UL8, sequence (Q86UL8 1141-1229): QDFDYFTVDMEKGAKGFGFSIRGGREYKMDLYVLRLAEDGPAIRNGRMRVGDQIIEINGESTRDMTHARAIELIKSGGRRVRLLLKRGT
Inadl_4, Q8NI35, sequence (Q8NI35 547-651): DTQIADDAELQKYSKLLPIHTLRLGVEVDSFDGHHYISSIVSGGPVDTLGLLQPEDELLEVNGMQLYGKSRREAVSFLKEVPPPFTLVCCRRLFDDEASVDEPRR
ARHGEF12, Q9NZN5-2, sequence (Q9NZN5 other isoform, or with tags, fused parts or gaps): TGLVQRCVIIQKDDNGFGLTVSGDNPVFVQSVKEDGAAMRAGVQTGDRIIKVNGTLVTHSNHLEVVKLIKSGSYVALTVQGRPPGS

What is called pKd is the negative decadic logarithm of the Kd, by convention in mol/L. As for REEPDHSTEV [CCRL2, O00421], the negative logarithm of the Kd (pKd) in experiment [1] was 4.71; in experiment [2], “below the threshold”; in experiment [3], 4.21; in experiment [4] it was “below the threshold”; in [5], 4.36; in experiment [6] it was 4.71. Also, the pKd result was “below the threshold” in experiment [7]; “below the threshold” in [8]; 4.16 in experiment [9]; 3.49 in experiment [10]; 3.53 in experiment [11]; 3.9 in experiment [12]. The negative logarithm of the Kd (pKd) in experiment [13] is 4.79; in experiment [14], “below the threshold”; in experiment [15], 4.37; in [16], “below the threshold”; in experiment [17] it was “below the threshold”; in [18] it was “below the threshold”. The pKd entry was “below the threshold” in experiment [19]; 4.31 in experiment [20]; “below the threshold” in [21]; “below the threshold” in [22]; 5.3 in [23]; “below the threshold” in [24].

Consider RFQQRMQTHV [KIRREL1, Q96J84], for which the pKd result in experiment [1] is “below the threshold”; in experiment [2] it was “below the threshold”; in [3], “below the threshold”; in experiment [4] it was “below the threshold”; in experiment [5], “below the threshold”; in [6], 4.32. Moreover, the pKd entry is “below the threshold” in [7]; “below the threshold” in [8]; “below the threshold” in [9]; 4.85 in [10]; “below the threshold” in experiment [11]; 3.92 in experiment [12]. In addition, the negative logarithm of the Kd (pKd) is 4.2 in [13]; “below the threshold” in experiment [14]; 4.44 in experiment [15]; “below the threshold” in experiment [16]; “below the threshold” in experiment [17]; “below the threshold” in experiment [18]. The negative-log Kd (pKd) entry in [19] is “below the threshold”; in experiment [20] it was 4.5; in [21], “below the threshold”; in [22], “below the threshold”; in experiment [23] it was 5.73; in experiment [24], “below the threshold”.

Turning to APIAGFSSFV [SDK2, Q58EX2], the pKd in experiment [1] is 4.13; in experiment [2], “below the threshold”; in [3], 4.04; in experiment [4], “below the threshold”; in experiment [5], 3.97; in experiment [6] it was 4.24. Moreover, the pKd entry in [7] was “below the threshold”; in experiment [8], “below the threshold”; in experiment [9], 4.36; in experiment [10] it was 4.84; in experiment [11], “below the threshold”; in experiment [12], 4.15. The pKd in [13] was 4.39; in [14] it was “below the threshold”; in [15] it was 4.14; in experiment [16], “below the threshold”; in experiment [17], “below the threshold”; in [18] it was “below the threshold”. The pKd entry in experiment [19] was “below the threshold”; in experiment [20], 4.63; in experiment [21], “below the threshold”; in experiment [22] it was “below the threshold”; in experiment [23], 4.73; in experiment [24] it was “below the threshold”.

In the case of QSYPSKHDYV [CLDN18, P56856], the negative-log Kd (pKd) in [1] is 3.82; in experiment [2] it was “below the threshold”; in experiment [3] it was 3.99; in experiment [4] it was 3.62; in experiment [5], “below the threshold”; in [6], 3.67. In addition, the pKd result in experiment [7] was “below the threshold”; in [8], “below the threshold”; in [9], “below the threshold”; in experiment [10] it was 4.17; in [11] it was “below the threshold”; in [12] it was 4.45. The pKd result in [13], in experiment [14], in experiment [15], in [16], in [17] and in [18] was “below the threshold” throughout. Also, the pKd result in [19] is “below the threshold”; in experiment [20] it was 4.08; in experiment [21] it was “below the threshold”; in [22] it was 3.53; in experiment [23], 3.87; in experiment [24] it was 3.48.
